# Results as given in publication PMC6609762.
# B1: alpha 2‐antiplasmin (natural protein)
# chain: NQEQVSPLTLLKLGNQEPGGQTALKSPPGVCSRDPTPEQTHRLARAMMAFTADLFSLVAQTSTCPNLILSPLSVALALSHLALGAQNHTLQRLQQVLHAGSGPCLPHLLSRLCQDLGPGAFRLAARMYLQKGFPIKEDFLEQSEQLFGAKPVSLTGKQEDDLANINQWVKEATEGKIQEFLSGLPEDTVLLLLNAIHFQGFWRNKFDPSLTQRDSFHLDEQFTVPVEMMQARTYPLRWFLLEQPEIQVAHFPFKNNMSFVVLVPTHFEWNVSQVLANLSWDTLHPPLVWERPTKVRLPKLYLKHQMDLVATLSQLGLQELFQAPDLRGISEQSLVVSGVQHQSTLELSEVGVEAAAATSIAMSRMSLSSFSVNRPFLFFIFEDTTGLPLFVGSVRNPNPSAPRELKEQQDSPGNKDFLQSLKGFPRGDKLFGPDLKLVPPMEEDYPQFGSPK
# Tests used:
# [1] = biological target: SKC1 (2aG88‐2b_(ALAB)‐2aG88)‐Pm complex (group G Streptococcus (GGS) strain G88 | group A Streptococcus (GAS) strain ALAB49 | human)
# [2] = biological target: SK2aG88‐Pm complex (streptokinase of group G Streptococcus G88 with plasmin) (group G Streptococcus (GGS) strain G88 | human)
# [3] = biological target: SK2bALAB49‐Pm complex (streptokinase of group A Streptococcus ALAB49 with plasmin) (group A Streptococcus (GAS) strain ALAB49 | human)
# [4] = biological target: SKC2 (2b_(ALAB)‐2aG88‐2b_(ALAB))‐Pm complex (group A Streptococcus (GAS) strain ALAB49 | group G Streptococcus (GGS) strain G88 | human)
# [5] = biological target: SKC1 (2aG88‐2b_(ALAB)‐2aG88)‐Pm complex (group G Streptococcus (GGS) strain G88 | group A Streptococcus (GAS) strain ALAB49 | human); remark: listed apart in the source
# [6] = biological target: SK2aG88‐Pm complex (streptokinase of group G Streptococcus G88 with plasmin) (group G Streptococcus (GGS) strain G88 | human); remark: listed apart in the source
# [7] = biological target: SK2bALAB49‐Pm complex (streptokinase of group A Streptococcus ALAB49 with plasmin) (group A Streptococcus (GAS) strain ALAB49 | human); remark: listed apart in the source
# [8] = biological target: SKC2 (2b_(ALAB)‐2aG88‐2b_(ALAB))‐Pm complex (group A Streptococcus (GAS) strain ALAB49 | group G Streptococcus (GGS) strain G88 | human); remark: listed apart in the source
Molecule,"K m of the proteolytic activity (substrate affinity): 100 nM SK, Pg 0.3–5.0 µM as substrate, 0.1 mM S2251, absorbance at 405 nM [1] [µM]","K m of the proteolytic activity (substrate affinity): 100 nM SK, Pg 0.3–5.0 µM as substrate, 0.1 mM S2251, absorbance at 405 nM [2] [µM]","K m of the proteolytic activity (substrate affinity): 100 nM SK, Pg 0.3–5.0 µM as substrate, 0.1 mM S2251, absorbance at 405 nM [3] [µM]","K m of the proteolytic activity (substrate affinity): 100 nM SK, Pg 0.3–5.0 µM as substrate, 0.1 mM S2251, absorbance at 405 nM [4] [µM]","retained activity (S‐2251 hydrolysis) of the SK‐Pm complex (20 nM) after 15 min with α2‐AP 100–400 nM, relative to no inhibitor; value at 400 nM [5] [%]","retained activity (S‐2251 hydrolysis) of the SK‐Pm complex (20 nM) after 15 min with α2‐AP 100–400 nM, relative to no inhibitor; value at 400 nM [6] [%]","retained activity (S‐2251 hydrolysis) of the SK‐Pm complex (20 nM) after 15 min with α2‐AP 100–400 nM, relative to no inhibitor; value at 400 nM [7] [%]","retained activity (S‐2251 hydrolysis) of the SK‐Pm complex (20 nM) after 15 min with α2‐AP 100–400 nM, relative to no inhibitor; value at 400 nM [8] [%]"
plasminogen (natural protein),2.05,0.77,7.92,3.45,–,–,–,–
B1,–,–,–,–,50,80,50,80
